US20110286916A1 (published 2011)
Like-named read-outs stand apart in the source and are kept apart here.

Legend:
[1] = target: T1, human Notch3-Gal4 chimeric receptor on U2OS FlpIn TREx cells (human, UniProt Q9UM47 40-2321); assay: cell-based or functional assay
[2] = target: T2, human full-length Notch1 with C-terminal FLAG tag, stably expressed on 293 FlpIn (TREx) cells (human, UniProt P46531 19-2555); assay: FACS, hN1 293 cells, MFI grade (+ 11-100)
T2 construct: tetracycline/doxycycline-induced expression from pcDNA5/FRT/TO-HN1+FLAG; also called hN1; 293_N1
Method: (§1) Notch 293 FlpIn (TREx) cells were treated with dox (2 ug/ml) for two days to induce Notch expression before collecting them for FACS surface expression analysis. The cells were harvested from tissue culture flasks using Trypsin for 15 min, centrifuged at 1200 rpm for 10 minutes and resuspended in 2 ml PBS with 2% fetal bovine serum (2% FBS/PBS). The cells were counted, adjusted to 10⁷ cells/ml and 0.1 ml of cells was incubated with 1 ug of each Mab for 40 minutes at 4° C. The cells were washed, resuspended in 0.1 ml 2% FBS/PBS and incubated with 1 ug R-PE-conjugated goat anti-human Ig (Jackson ImmunoResearch) for 30 minutes at 4° C. Cells were washed, resuspended in 0.3 ml PBS with 10% formaldehyde and analyzed on a FACSCalibur (Becton Dickinson, Mt View, Calif.).

[3] = target: T3, Notch1 extracellular fragment (amino acid 19-526) Fc fusion protein, R&D Systems 3647-TK (human, UniProt P46531 19-526); assay: BIAcore SPR, Notch1/Fc on CM5, Mab analyte, 1:1 binding
T3 construct: bought protein; also called Notch1/Fc; Notch1-ECD Fc fusion protein; not shown: Fc of the bought fusion protein
Method: All experiments were performed at 25° C. at a flow rate of 40 μl/min. […] FC1 was used as the reference cell. Specific signals were the results of differences of signals obtained on FC2 versus FC1. […] The dissociation phase of the analyte was monitored over a period of time ranging 10-30 minutes. Running buffer was also injected under the same conditions as a reference.
Equilibrium dissociation constant (KD) was calculated by the ratio between dissociation (koff) and association (kon) rate constants.

[4] = target: T2, human full-length Notch1 with …; assay: FACS, hN1 293 cells, MFI grade (++ 101-500)
Method: as §1

[5] = target: T3, Notch1 extracellular fragment (amino …); assay: titration ELISA, antigen coated, purified IgG1
Method: Plates were blocked with 300 ul of milk blocker per well and incubated for 2 hour at RT. […] After washing plates with PBS or TBS buffer, anti-human lambda light chain antibody with HRP was used for detection antibody and absorbance at 450 nm was read with a plate reader.

[6] = target: T2, human full-length Notch1 with …; assay: FACS, hN1 293 cells, MFI grade (++++ >1000)
Method: as §1
Clones were analyzed as described in Section I-Example 12. We analyzed the corresponding Mabs for their binding to 293-N1, -N3 and 293 parental cells by flow cytometry.

[7] = target: T1, human Notch3-Gal4 chimeric receptor on …; assay: cell-based or functional assay; remark: listed apart in the source

Binder	hN3, inhibition of Luc activity at [166 nM] Mab [1] [%]	MFI [2] [mfi]	Kd [3] [nM]	koff [3] [s⁻¹]	kon [3] [M⁻¹ s⁻¹]	MFI [4] [mfi]	EC50 [5] [nM]	MFI [6] [mfi]	hN3, inhibition of Luc activity at [166 nM] Mab [7] [%]
WC-168 (antibody, human IgG1, lambda, V domains shown, also called N1wc168; hN1wc-168) VH: EVQLVQSGAEVKKPGASVKVSCKASGYNFTGYYMHWVRQAPGQGLEWMGWINPNSGGTNYAQKFQGRVTMTRDTSISTAYMELSRLRSDDTAVYYCATDSFDYWGRGTLVTVSS VL: not shown	< 10	11 to 100	4.7	0.00228	486000	–	–	–	–
WC-155 (antibody, human IgG1, lambda, V domains shown, also called N1wc155; hN1wc-155) VH: EVQLVQSGAEVKKPGASVKVSCKASGYNFTGYYMHWVRQAPGQGLEWMGWINPNSGGTNYAQKFQGRVTMTRDTSISTAYMELSRLRSDDTAVYYCATDSFDYWGRGTLVTVSS VL: QSVLTQPPSVSGAPGQRVTISCTGSSSNIGAGYDVLWYRQLPGTAPKLLIYGNTHRPSGVPDRFSGSNSGTSASLAITGLQAEDEADYYCQSYDSSLSGSVFGGGTKLTVLQ	< 10	–	1.74	0.00029	166000	101 to 500	–	–	–
WC-97 (antibody, human IgG1, lambda, V domains shown, also called N1wc97; hN1wc-97) VH: EVQLVQSGAEVKKPGASVKVSCKASGYNFTGYYMHWVRQAPGQGLEWMGWINPNSGGTNYAQKFQGRVAMTRDTSISTAYMELSRLRSDDSAVYYCATDSFDYWGRGTTVTVSS VL: QSVLTQPPSVSGAPGQRVTISCTGTSSNIGAGYDVQWYQQLPGTAPKVLMYGNSNRPSGVPDRFSGSKSGTSASLAITGLQAEDEADYYCQSYDSSLSGSLFGTGTKVTVLQ	< 10	11 to 100	7.87	0.000438	55600	–	–	–	–
S3-013 (antibody, human IgG1, lambda, V domains shown, also called hN1S3-013; HN1S3-13) VH: EVQLVQSGAEVKKPGASVKVSCKASGYNFTGYYMHWVRQAPGQGLEWMGWINPNSGGTNYAQKFQGRVTMTRDTSISTAYMELSRLRSDDTAVYYCATDSFDYWGRGTLVTVSS VL: QPVLTQPPSASGTPGQRVTISCSGSSSNIGSNYVYWYQKFPGTAPKLLIYTNNQRPSGVPDRFSGSKSGTSASLAISGLRSEDEADYYCAAWDDSLSGVVFGGGTKVTVLQ	< 10	11 to 100	4.92	0.00294	597000	–	–	–	–
WC-173 (antibody, human IgG1, lambda, V domains shown, also called N1wc173; hN1wc-173) VH: EVQLVQSGAEVKKPGASVKVSCKASGYNFTGYYMHWVRQAPGQGLEWMGWINPNSGGTNYAQKFQGRVTMTRDTSISTAYMELSRLRSDDTAVYYCATDSFDYWGQGTTVTVSS VL: QPVLTQPPSASWTPGQRVTISCSGSSSNIGSNTVHWYRQFPGTAPQLLIYSNNQRPSGVPDRFSGSKSGTSASLAIRGLQSEDEADYYCAAWDDSLNGVVFGGGIKLTVLQ	< 20	–	3.27	0.000447	137000	101 to 500	–	–	–
S3-056 (antibody, human IgG1, lambda, V domains shown, also called hN1S3-056; HN1S3-56) VH: QVQLQQSGAEVKKPGASVKVSCKASGYNFTGYYMHWVRQAPGQGLEWMGWINPNSGGTNYAQKFQGRVTMTRDTSISTAYMELSRLRSDDTAVYYCATDSFDYWGRGTLVTVSS VL: not shown	< 10	11 to 100	5.65	0.00292	517000	–	–	–	–
WC-159 (antibody, human IgG1, lambda, V domains shown, also called N1wc159) VH: QLQLVETGGGLVKPGESLTLSCAASGFTFSSYSMNWVRQAPGKGLEWVSSISSSGSSIYYADSLKGRFTISRDNAKNSLYLQMNSLRAEDTAVYYCTRGTQWLAGVGDYWGKGTLVTVSS VL: QSALTQPPSASASPGQSVTISCTGTSSDVGAYDSVSWYQQHPGKAPKLIIYDVNNRPSGVSNRFSGSESGNTASLTISGLQAEDEANYYCSSYRNTKTVVFGGGTKLTVLQ	< 10	–	–	–	–	–	0.12	–	–
A2780-C2-16 (antibody, human IgG1, lambda, V domains shown, full IgG1/lambda chains; name tied through the DNA section of Appendix IX (same order); also called B-000000397-000M) VH: EVQLVQSGAEVKKPGSSVKVSCKASGGTFSSFAFSWVRQAPGQGLDWMGRIIPILGRTNYAQKFQGRVTFTADTSTSTVYMELSSLSSEDTAVYYCARDREYSLSLGGSDYWGQGTLVTVSS VL: QAVLTQPSSVSGAPGQRVTISCIGSSSNIGAGYDVHWYRQPPGTAPQLLIYANTNRPSGVPDRFSGSRSGTSASLAITGIQAEDEADYYCQSYDSSLSGRVFGGGTKVTVLG	–	–	–	–	–	–	–	> 1000	< 15
FL-JEG3-C2-11 (antibody, human IgG1, lambda, V domains shown, full IgG1/lambda chains; name tied through the DNA section of Appendix IX (same order); also called JEG-C2-11; B-000000399-000E) VH: QLQLVETGGGLVQPVGSLRLSCAASGFSFDNYAMSWVRQAPGKGLEWVSSISGSGGQIFYADSVKGRFTISRDNAKNTLVLQMNSLRVDDTAVYYCARDFYRTPGYNTNWGYWGRGTMVTVSS VL: SYVLTQPPSVSVSPGETASISCSGDGLGNKYVAWYQQKPGQSPVLVIQQDSKRPSGIPERFSGSNSGDTATLTISGTQSLDEGDYYCQAWDRPAVIFGGGTKLTVLG	–	–	–	–	–	–	–	> 1000	< 5
FL-SKNAS-D2-268 (antibody, human IgG1, lambda, V domains shown, full IgG1/lambda chains; name tied through the DNA section of Appendix IX (same order); also called B-000000395-000V) VH: not shown VL: QAVLTQPSSVSGAPGQRVTISCTGTSSNIGAPYDVNWYQQLPGIAPKLLISGNTNRPSGVPDRFSGSKSGASASLAITGLQADDEADYYCQSYDHSLSGWVFGGGTKVTVLG	–	–	–	–	–	–	–	> 1000	< 5
FL-SKNAS-C2-514 (antibody, human IgG1, lambda, V domains shown, full IgG1/lambda chains; name tied through the DNA section of Appendix IX (same order); also called B-000000402-000X) VH: EVQLVQSGAEVKEPGESLRISCKASGYDFSNYWIAWVRQMPGKGLEWMGIIYPGDSDTRYSPSFQGQVTISVDRSISTAYLQWSSLKASDTALYYCSRPTYWSTTWGREFDYWGQGTLVTVSS VL: SYELTQPPSVSVSPGQTATITCSGDALPKKYAYWYQQKSGQAPVLVVYEDSKRPSGIPERFSGSSSGTMATLTISGAQVEDEADYYCYSTDSSGNHWVFGGGTKLTVLG	–	–	–	–	–	–	–	> 1000	< 5
